The target in experiment [1] is cynomolgus monkey GIPR (cynomolgus monkey). The experiment is described as follows: cell-based or functional assay.
Experiment [2] addresses cynomolgus monkey GLP1R (cynomolgus monkey) (UniProt F8V479). As to the kind of experiment: cell-based or functional assay.

In the case of Tirzepatide (peptide), the In Vitro Potency GIPR EC50 [nM], Cyno in experiment [1] is 0.08 nM.
Semaglutide (peptide) registered an In Vitro Potency GLP1R EC50 [nM], Cyno in experiment [2] of 0.13 nM.

These data come from patent US20250320252A1, “LONG-ACTING DUAL GIP/GLP-1 PEPTIDE CONJUGATES AND METHODS OF USE” (The Scripps Research Institute, priority 2021, published 2025).
